# According to PMC11720309, “Transcriptional regulation of miR528-PPO module by miR156 targeted SPLs orchestrates chilling response in banana”:
# T1: MaSPL44 (UniProt A0A804KAB2 1-473)
# T1 sequence: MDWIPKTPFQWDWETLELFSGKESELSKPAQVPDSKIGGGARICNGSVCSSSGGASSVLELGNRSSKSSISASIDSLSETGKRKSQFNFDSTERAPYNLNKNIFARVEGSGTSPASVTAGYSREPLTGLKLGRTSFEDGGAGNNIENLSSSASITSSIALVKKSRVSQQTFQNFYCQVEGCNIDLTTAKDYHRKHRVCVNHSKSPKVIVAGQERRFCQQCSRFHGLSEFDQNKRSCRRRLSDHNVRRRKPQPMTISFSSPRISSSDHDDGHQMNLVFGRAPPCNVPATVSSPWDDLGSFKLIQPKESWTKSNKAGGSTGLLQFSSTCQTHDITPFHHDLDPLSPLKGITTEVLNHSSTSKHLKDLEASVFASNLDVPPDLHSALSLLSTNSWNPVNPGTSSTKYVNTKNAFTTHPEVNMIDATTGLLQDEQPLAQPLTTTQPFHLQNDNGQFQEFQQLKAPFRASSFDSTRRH
# T2: MaSPL5 (UniProt A0A804I0H4 1-393)
# T2 sequence: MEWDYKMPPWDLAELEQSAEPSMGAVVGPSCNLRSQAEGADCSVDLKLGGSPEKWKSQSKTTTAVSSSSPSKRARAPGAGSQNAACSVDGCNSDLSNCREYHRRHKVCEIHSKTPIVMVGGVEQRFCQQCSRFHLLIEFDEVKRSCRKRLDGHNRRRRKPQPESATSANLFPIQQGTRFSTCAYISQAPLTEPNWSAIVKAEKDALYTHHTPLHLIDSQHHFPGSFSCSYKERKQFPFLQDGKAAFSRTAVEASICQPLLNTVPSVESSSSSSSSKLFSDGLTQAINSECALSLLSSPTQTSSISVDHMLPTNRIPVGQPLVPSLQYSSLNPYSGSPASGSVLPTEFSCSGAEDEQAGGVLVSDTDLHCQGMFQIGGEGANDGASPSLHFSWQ
# T3: MaSPL4 (UniProt A0A804HZD8 1-178)
# T3 sequence: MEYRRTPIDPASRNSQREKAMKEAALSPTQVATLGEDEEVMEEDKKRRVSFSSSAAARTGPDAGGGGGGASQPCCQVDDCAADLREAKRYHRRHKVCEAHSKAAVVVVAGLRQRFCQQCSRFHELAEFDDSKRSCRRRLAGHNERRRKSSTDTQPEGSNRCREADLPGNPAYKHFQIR
# B1: MamiR528pro-probe (dsDNA)
# DNA 1: GCGCAGTACAGTGCAGTACTAAGATACTACACAAACCACACAATAGAAGTACCACTATC
# DNA 2: GATAGTGGTACTTCTATTGTGTGGTTTGTGTAGTATCTTAGTACTGCACTGTACTGCGC
# B2: MamiR528pro-mut-probe (dsDNA)
# DNA 1: GCGCAAAAAAGTGCAAAAATAAGATACTACACAAACCACACAATAGAAAAAACACTATC
# DNA 2: GATAGTGTTTTTTCTATTGTGTGGTTTGTGTAGTATCTTATTTTTGCACTTTTTTGCGC
# Legend:
# Conditions in all cases: protein: recombinant; tags: GST (N-terminal, pGEX-4T-3); blunt
# [1] = biological target: T1, MaSPL44; experiment: EMSA; Chemiluminescent EMSA Kit (Thermo Fisher); buffer, salt, pH and temperature not stated
# [2] = biological target: T2, MaSPL5; experiment: as above
# [3] = biological target: T3, MaSPL4; experiment: as above
# [4] = biological target: T1, MaSPL44; experiment: competition; unlabeled competitor vs biotin-N1 (EMSA); Chemiluminescent EMSA Kit (Thermo Fisher); buffer, salt, pH and temperature not stated
# [5] = biological target: T2, MaSPL5; experiment: as above
# [6] = biological target: T3, MaSPL4; experiment: as above
Binder,binding result [1],binding result [2],binding result [3],binding result [4],binding result [5],binding result [6]
B1,binds,binds,binds,,,
B2,,,,no binding,no binding,no binding
